Data as given in the RNAGym collection of RNA variant scans (doi:10.1073/pnas.2313332121).
This sample holds only a part of the variants without activity.

B1: TPR 5TU (parent)
chain: GGAUCUUCUCGAUCUAACAAAAAAGACAAAUCUGCCACAAAGCUUGAGAGCAUCUUCGGAUGCAGAGGCGGCAGCCUUCGGUGGCGCGAUAGCGCCAACGUUCUCAACUAUGACACGCAAAACGCGUGCUCCGUUGAAUGGAGUUUAUCAUG

Variants of: B1
Experiment: polymerase ribozyme fitness, log enrichment relative to wild type (log ratio); higher = more active; in vitro selection for triplet polymerase activity
Summary of the method: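 One round of in vitro selection, in triplicate, was applied to PCR-built, transcribed mutant libraries of each subunit of a heterodimeric triplet polymerase ribozyme. The steps were annealing with a biotinylated primer, partner subunit and triplets, incubation frozen at −7 °C, gel excision of extended constructs, streptavidin-bead capture and RT-PCR. Fitness is the logarithm, base 2, of genotype enrichment over wild-type enrichment from inverse-variance-weighted replicate averages of Illumina-sequenced inputs and outputs, keeping genotypes with ≥10 input reads and ≥1 read per output.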

| Variant | polymerase ribozyme fitness (log ratio) |
| --- | --- |
| G11C C14G C87A A121C U144A | ≤ -4.2 |
| G11A C14U U33G U44A C69A C79A C85U A97U | ≤ -4.2 |
| C10U A19G U33A C79U C93U | ≤ -4.2 |
| C10U C35A A40U U44A C51U G59U G68C C87A G143U | ≤ -4.2 |
| G11A U104A A119U G136A U144A | -2.19 |
| C10U U13C A37C G70A C79A G84A A107C | ≤ -4.2 |
| C10U G84A U101A A115U A121G G124A | ≤ -4.2 |
| G11C G50A G92U G143A | -4.01 |
| G11C C35U A52C A60G | ≤ -4.2 |
| G11U U53G C57G G59U G94A | -3.74 |
| G11U C38A C125U | -2.71 |
| G11U A66C C76U U90G U102G U148G | ≤ -4.2 |
| G11U A40U G42C G84C G100U A107U U134G | ≤ -4.2 |
| C10U U56A C93U A122U C149U G152U | ≤ -4.2 |
| C10U G42C G88U C105G G143U | ≤ -4.2 |
| C10U G50C A64C G65C C93A A142U | ≤ -4.2 |
| C10U A47G G94U A147G | ≤ -4.2 |
| G11A C43U C54U A106U C108G G112A | ≤ -4.2 |
| G11A A39G C54G C87U C96G | ≤ -4.2 |
| G11U A17C A37U A121U A122U | -3.25 |
| C10U G42C G83U A97G G124U G133C | ≤ -4.2 |

| Variant | polymerase ribozyme fitness (log ratio) |
| --- | --- |
| G11C C18G A23C G48A G88U C93G U144A | ≤ -4.2 |
| G11A A40G A49C U61A G81A C125A | ≤ -4.2 |
| G11U A26U U61G G84U C85A C96A U139A | ≤ -4.2 |
| G11A C93G | ≤ -4.2 |
| G11C U31C G59C C76A G84U U104A A107U | ≤ -4.2 |
| A12C A21G C51U G83U | -2.15 |
| G11U C14G G34U G84U G141U | ≤ -4.2 |
| G11C G50U G84U A97G | -3.09 |
| G11U U44A G92C | ≤ -4.2 |
| G11C A41C A66C C85U A122U G140U | ≤ -4.2 |
| C10U A12C C54A C85U C108U | ≤ -4.2 |
| G11A C114G G124U | -4.03 |
| A12C A16U C87G | ≤ -4.2 |
| C10U C14U A17C U56A U134A A137U U151C | ≤ -4.2 |
| C10U U45A C54A G71C G136U | ≤ -4.2 |
| G11U U13A A17U A26U A41C U45A C87A C108U A142C A147U | ≤ -4.2 |
| G11U A19C U55A G71A A91C G100A U109G A122U | ≤ -4.2 |
| G11A C54U U55A G74A A89G G92C C105G G112A U144G | ≤ -4.2 |
| A12C A19C C99U | -1.52 |
| C10U G136A | -2.74 |
| G11C G46C C57U C85U | -3.93 |

| Variant | polymerase ribozyme fitness (log ratio) |
| --- | --- |
| G11A G94U A113C C114U A122C G143U C149U | ≤ -4.2 |
| C10U U53A | -2.96 |
| C10U C35U A47C C85A A89C C93U C95U | ≤ -4.2 |
| C10U U33G C38G U44G A52G C87U C108U C118U | ≤ -4.2 |
| G11U G94A A98C | -1.81 |
| G11U C14U C72U G143A | ≤ -4.2 |
| C10U A23U U90G | ≤ -4.2 |
| C10U G65A G92A | ≤ -4.2 |
| C10U U15A A23U C32A C51U U55G U111G | ≤ -4.2 |
| A12C A20G A37C C51U G58C A91C | ≤ -4.2 |
| C10U C85G | -3.57 |
| C10U C85A | -3.35 |
| G11A A28U C32U A47U C79A | ≤ -4.2 |
| A12C A20U U53C A89G | -3.96 |
| G11C C51U C85U G140C | ≤ -4.2 |
| C10U G141A | -2.07 |
| G11U A91G | -3.82 |
| G11U G34A G50A C85U U90C G143A | ≤ -4.2 |
| C10G U77A C93U U144G | ≤ -4.2 |
| G11A G59A | -1.71 |
| C10G U15G A23C G62C A97C C125U | ≤ -4.2 |

| Variant | polymerase ribozyme fitness (log ratio) |
| --- | --- |
| C10U A19C U45G C72G U90C U135G | ≤ -4.2 |
| G11A C54U G83A A147U | -0.578 |
| G11A C43G U90C G94A | -4.13 |
| G11U C93U A115G | -2.88 |
| G11U G34A G88A G124A | ≤ -4.2 |
| C10G U55A C69G C93U C103G C116A | ≤ -4.2 |
| C10U A23G G50U U53A G71C C87A A120U | ≤ -4.2 |
| G11C A40C G42A G58U A60U C85G A89U C93G | ≤ -4.2 |
| G11A C14G A66U C87A A106U G143C | ≤ -4.2 |
| C10U C27U U55A G59C G84A | ≤ -4.2 |
| G11U U90A A119U G133C | ≤ -4.2 |
| G11U C54U U77G G92U U145A A147U | ≤ -4.2 |
| A12C A17G U31G U44A C93U C99U A122C U134A A142G | ≤ -4.2 |
| G11C G83A G141U | -0.379 |
| A12C A20C U53A C76A U151G | ≤ -4.2 |
| C10U C32U A49C U134C | ≤ -4.2 |
| G11U G74U G81U G88C A89G C95U G128U U148A | ≤ -4.2 |
| C10U C32G U145C | -4.16 |
| C10U G11A A19U U55A C75G G83U | ≤ -4.2 |
| G11A C38U G59C A64U G81A C93U G94C | ≤ -4.2 |
| G11C C105U C118G | -1.92 |
